Experimental data: paper PMC4219604, “C-terminal in Sp1-like artificial zinc-finger proteins plays crucial roles in determining their DNA binding affinity”

Biological target: 7ZFP Active-A (artificial (Sp1-derived zinc fingers))
Test: EMSA; EMSA: 25 mM HEPES, 100 mM KCl, 1 mM EDTA, 10 mM MgCl2, 0.1% NP40, 1% glycerol, 1 mM DTT; 30 min on ice; pH not stated
Settings: protein: recombinant; tags: C-terminal 6xHis; label: biotin; blunt

7ZFP Active-A (artificial (Sp1-derived zinc fingers)), sequence (chain, as listed by the source): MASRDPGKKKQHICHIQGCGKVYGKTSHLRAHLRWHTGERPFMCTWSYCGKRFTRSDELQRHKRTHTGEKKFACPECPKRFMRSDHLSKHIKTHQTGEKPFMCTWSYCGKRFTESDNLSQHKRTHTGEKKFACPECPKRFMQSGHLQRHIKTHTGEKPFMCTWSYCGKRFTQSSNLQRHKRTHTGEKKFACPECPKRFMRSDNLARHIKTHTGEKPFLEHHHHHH

B1: Probe-1 (p16 promoter) (dsDNA)
DNA 1: AAGGTTGTATCGCGGAGGAAGGAAACGGGGCGGGGGCGGATTTCT
DNA 2: AGAAATCCGCCCCCGCCCCGTTTCCTTCCTCCGCGATACAACCTT
binding result: binds
